Measured values taken from patent publication US20120040896.

What was measured:
[1] = test system: GST-BRCA1 fusion protein A509+S694 (T509A mutant, nucleotides 1323-2538)
[2] = test system: GST-BRCA1 fusion protein E509+S694 (phospho-mimic T509E mutant, nucleotides 1323-2538)
[3] = test system: GST-BRCA1 fusion protein S694/T696 (nucleotides 1926-2538)
[4] = test system: GST-BRCA1 fusion protein T1246 (nucleotides 3714-4310)
[5] = test system: GST-BRCA1 fusion protein T509 (nucleotides 1323-1886)
Chain of GST-BRCA1 fusion protein T509 (nucleotides 1323-1886) (chain, as listed by the source): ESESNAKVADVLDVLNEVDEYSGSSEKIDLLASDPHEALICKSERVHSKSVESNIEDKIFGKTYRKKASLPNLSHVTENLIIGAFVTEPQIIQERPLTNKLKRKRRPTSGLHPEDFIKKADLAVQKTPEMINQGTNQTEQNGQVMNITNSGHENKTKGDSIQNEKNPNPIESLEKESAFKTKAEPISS

[6] = test system: GST-BRCA1 fusion protein wild-type T509+S694 (nucleotides 1323-2538)
Chain of GST-BRCA1 fusion protein wild-type T509+S694 (nucleotides 1323-2538) (chain, as listed by the source): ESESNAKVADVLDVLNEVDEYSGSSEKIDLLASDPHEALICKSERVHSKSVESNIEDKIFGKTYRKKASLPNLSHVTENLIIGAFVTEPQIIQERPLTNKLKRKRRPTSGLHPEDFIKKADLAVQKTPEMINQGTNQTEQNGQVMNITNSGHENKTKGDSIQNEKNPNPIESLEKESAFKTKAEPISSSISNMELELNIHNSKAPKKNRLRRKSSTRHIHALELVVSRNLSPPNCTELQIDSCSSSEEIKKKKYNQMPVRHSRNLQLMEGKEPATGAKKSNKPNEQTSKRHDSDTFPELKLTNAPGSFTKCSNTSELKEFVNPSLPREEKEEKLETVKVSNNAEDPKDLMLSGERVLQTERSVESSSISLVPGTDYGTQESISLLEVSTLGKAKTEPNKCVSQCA

[7] = test system: GST-BRCA1 fusion protein with a T509A mutation (A509, nucleotides 1323-1886)
[8] = test system: purified full length BRCA1 protein (ProteinOne)

Chain of GST-BRCA1 fusion protein T1246 (nucleotides 3714-4310) (chain, as listed by the source): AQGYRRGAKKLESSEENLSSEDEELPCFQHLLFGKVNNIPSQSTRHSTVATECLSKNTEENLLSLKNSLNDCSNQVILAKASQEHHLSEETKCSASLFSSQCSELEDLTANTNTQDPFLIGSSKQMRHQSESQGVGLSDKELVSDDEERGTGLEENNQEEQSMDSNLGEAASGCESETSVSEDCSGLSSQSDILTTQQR
Chain of GST-BRCA1 fusion protein S694/T696 (nucleotides 1926-2538) (chain, as listed by the source): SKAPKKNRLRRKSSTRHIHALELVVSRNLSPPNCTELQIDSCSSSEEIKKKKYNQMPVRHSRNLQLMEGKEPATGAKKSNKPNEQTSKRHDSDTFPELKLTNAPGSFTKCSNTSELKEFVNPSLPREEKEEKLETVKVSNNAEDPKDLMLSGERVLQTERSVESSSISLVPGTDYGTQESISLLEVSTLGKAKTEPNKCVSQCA

**Q.** Which “in vitro Akt kinase assay (phosphorylation signal)” value [1] does the source give for purified active Akt1 here?
**A.** equally phosphorylated by Akt, with the intensity of these signals approximately equal to one half of the signal obtained with the wild-type T509+S694 construct

**Q.** And the “in vitro Akt kinase assay (phosphorylation signal)” value [2]?
**A.** equally phosphorylated by Akt, with the intensity of these signals approximately equal to one half of the signal obtained with the wild-type T509+S694 construct

**Q.** What about the “in vitro Akt kinase assay (phosphorylation)” value [3] of the same substance?
**A.** both the T509 and S694/T696 constructs were strongly phosphorylated

**Q.** And the “in vitro Akt kinase assay (phosphorylation)” value [4]?
**A.** T1246 did not appear to be phosphorylated

**Q.** And the “in vitro Akt kinase assay (phosphorylation)” value [5]?
**A.** both the T509 and S694/T696 constructs were strongly phosphorylated

**Q.** What about the “in vitro Akt kinase assay (phosphorylation signal)” value [6] of the same substance?
**A.** the signal obtained with the wild-type T509+S694 construct

**Q.** What about the “in vitro Akt kinase assay (phosphorylation)” value [7] of the same substance?
**A.** A fusion protein with a T509A mutation was not phosphorylated

**Q.** What about the “in vitro kinase reaction (phosphorylation)” value [8] of the same substance?
**A.** full length BRCA1 is phosphorylated by Akt in vitro
